Four molecules from paper PMC9482650, “Quantitative fragmentomics allow affinity mapping of interactomes” (Nature Communications, 2022) can be followed below.

Usually pKd stands for the Kd on a negative log10 scale, so that one unit is a factor of ten.

Targets include Inadl_5, Q8NI35; MAGI2_6, Q86UL8; MAGI3_2, Q5TCQ9; TJP1_2, Q07157; SCRIB_2, Q14160; FRMPD2_1, Q68DX3; CASK, O14936; FRMPD2_3, Q68DX3; MAGI1_1, Q96QZ7; GORASP2, Q9H8Y8; DLG4_1, P78352; GRID2IP_1, A4D2P6; Inadl_8, Q8NI35; FRMPD2_2, Q68DX3; GORASP1, Q9BQQ3; LAP2, Q96RT1.
What all share (assay): holdup assay
Common to all, as to set-up: key: below the threshold = too weak to quantify, mostly under pKd 3.1 to 4
Conditions in all cases: plain residues with an end cap or a label only (N-terminal biotin on a linker: ado-ado)

A further assay concerns the target T1, NHERF3_3, Q5T2W1.
T1 sequence (Q5T2W1 238-333, limits assumed, looked up): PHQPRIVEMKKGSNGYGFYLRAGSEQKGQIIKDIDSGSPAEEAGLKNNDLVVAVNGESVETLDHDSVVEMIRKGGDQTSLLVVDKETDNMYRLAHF

Another assay deals with T2, GRIP1_7, Q9Y3R0.
T2 sequence (Q9Y3R0 999-1096, limits assumed, looked up): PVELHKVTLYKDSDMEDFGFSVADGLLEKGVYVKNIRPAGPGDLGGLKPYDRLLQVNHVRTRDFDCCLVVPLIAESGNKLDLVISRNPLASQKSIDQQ

For a further assay, the target named is T3, LIN7A, O14910.
T3 sequence (O14910 103-200, limits assumed, looked up): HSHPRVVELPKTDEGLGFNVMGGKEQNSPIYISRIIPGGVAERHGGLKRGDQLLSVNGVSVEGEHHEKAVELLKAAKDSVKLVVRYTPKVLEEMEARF

The target in the next assay is T4, MPDZ_5, O75970.
T4 sequence (O75970 695-796, limits assumed, looked up): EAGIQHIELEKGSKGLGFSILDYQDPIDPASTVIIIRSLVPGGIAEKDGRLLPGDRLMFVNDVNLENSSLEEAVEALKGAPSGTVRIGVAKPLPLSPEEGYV

The target in a further assay is T5, HTRA3, P83110.
T5 sequence (P83110 354-453, limits assumed, looked up): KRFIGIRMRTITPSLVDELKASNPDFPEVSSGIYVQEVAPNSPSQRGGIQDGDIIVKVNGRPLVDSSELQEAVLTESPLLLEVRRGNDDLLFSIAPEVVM

Another assay addresses T6, DLG3_2, Q92796.
T6 sequence (Q92796 221-321, limits assumed, looked up): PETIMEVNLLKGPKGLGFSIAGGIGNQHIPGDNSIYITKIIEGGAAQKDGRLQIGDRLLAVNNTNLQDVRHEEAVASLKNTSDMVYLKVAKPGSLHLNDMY

In another assay the target is T7, SNTB1, Q13884.
T7 sequence (Q13884 107-205, limits assumed, looked up): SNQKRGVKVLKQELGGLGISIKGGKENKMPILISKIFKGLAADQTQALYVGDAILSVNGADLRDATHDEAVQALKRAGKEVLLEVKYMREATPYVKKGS

For another assay, the target named is T8, PDZD2_2, O15018.
T8 sequence (O15018 329-429, limits assumed, looked up): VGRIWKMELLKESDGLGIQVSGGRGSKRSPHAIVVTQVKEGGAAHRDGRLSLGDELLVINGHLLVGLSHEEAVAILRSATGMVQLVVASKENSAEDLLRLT

For a further assay, the target named is T9, RHPN1, Q8TCX5.
T9 sequence (Q8TCX5 508-602, limits assumed, looked up): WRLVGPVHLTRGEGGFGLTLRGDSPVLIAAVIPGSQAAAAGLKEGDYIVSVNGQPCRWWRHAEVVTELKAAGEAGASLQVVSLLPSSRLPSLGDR

Another assay has as its target T10, NHERF3_4, Q5T2W1.
T10 sequence (Q5T2W1 373-468, limits assumed, looked up): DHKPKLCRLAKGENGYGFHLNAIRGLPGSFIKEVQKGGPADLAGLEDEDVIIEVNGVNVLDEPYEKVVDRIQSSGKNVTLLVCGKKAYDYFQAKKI

For another assay, the target named is T11, DLG3_1, Q92796.
T11 sequence (Q92796 125-227, limits assumed, looked up): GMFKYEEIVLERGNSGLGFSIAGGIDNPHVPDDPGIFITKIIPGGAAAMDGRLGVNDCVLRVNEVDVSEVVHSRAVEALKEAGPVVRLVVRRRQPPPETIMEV

GORASP1, Q9BQQ3, sequence (Q9BQQ3 1-208): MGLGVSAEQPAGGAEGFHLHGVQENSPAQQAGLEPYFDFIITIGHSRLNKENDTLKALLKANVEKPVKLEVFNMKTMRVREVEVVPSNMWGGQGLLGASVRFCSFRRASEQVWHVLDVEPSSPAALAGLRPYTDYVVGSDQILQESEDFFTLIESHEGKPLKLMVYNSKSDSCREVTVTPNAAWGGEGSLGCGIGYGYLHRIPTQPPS
GRID2IP_1, A4D2P6, sequence (A4D2P6 1-87): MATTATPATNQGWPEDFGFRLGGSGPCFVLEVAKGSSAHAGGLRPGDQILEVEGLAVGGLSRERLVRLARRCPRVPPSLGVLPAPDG
CASK, O14936, sequence (O14936 487-570): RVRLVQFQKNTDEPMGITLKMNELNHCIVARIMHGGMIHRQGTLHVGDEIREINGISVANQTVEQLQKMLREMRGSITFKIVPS
SCRIB_2, Q14160, sequence (Q14160 857-960): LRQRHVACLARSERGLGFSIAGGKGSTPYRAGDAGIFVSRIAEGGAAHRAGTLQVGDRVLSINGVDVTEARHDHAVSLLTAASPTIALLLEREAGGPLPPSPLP
FRMPD2_2, Q68DX3, sequence (Q68DX3 944-1038): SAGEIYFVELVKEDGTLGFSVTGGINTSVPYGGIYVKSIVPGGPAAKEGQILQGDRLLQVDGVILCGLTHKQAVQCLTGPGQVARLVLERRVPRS
MAGI3_2, Q5TCQ9, sequence (Q5TCQ9 398-503): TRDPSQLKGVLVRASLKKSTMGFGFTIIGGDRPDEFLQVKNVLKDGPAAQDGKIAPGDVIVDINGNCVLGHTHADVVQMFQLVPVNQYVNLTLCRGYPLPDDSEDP
MAGI1_1, Q96QZ7, sequence (Q96QZ7 1-106): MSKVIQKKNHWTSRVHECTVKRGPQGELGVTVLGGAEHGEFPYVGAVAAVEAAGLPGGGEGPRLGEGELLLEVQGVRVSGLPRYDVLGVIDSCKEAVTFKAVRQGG
FRMPD2_1, Q68DX3, sequence (Q68DX3 770-861): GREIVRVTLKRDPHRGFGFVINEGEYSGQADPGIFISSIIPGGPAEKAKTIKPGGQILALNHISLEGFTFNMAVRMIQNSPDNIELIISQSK
FRMPD2_3, Q68DX3, sequence (Q68DX3 1073-1166): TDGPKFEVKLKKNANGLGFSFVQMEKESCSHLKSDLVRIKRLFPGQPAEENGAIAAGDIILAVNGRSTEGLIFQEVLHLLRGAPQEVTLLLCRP
MAGI2_6, Q86UL8, sequence (Q86UL8 1141-1229): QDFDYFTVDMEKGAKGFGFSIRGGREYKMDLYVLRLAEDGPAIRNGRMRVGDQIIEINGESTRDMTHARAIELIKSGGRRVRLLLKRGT
LAP2, Q96RT1, sequence (Q96RT1 other isoform, or with tags, fused parts or gaps): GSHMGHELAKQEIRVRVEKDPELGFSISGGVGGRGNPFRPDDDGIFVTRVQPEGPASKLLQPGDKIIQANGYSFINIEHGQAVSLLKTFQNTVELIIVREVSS
DLG4_1, P78352, sequence (P78352 62-152): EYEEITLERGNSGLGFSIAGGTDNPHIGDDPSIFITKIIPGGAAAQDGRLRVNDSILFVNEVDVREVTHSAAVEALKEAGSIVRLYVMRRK
Inadl_8, Q8NI35, sequence (Q8NI35 1425-1530): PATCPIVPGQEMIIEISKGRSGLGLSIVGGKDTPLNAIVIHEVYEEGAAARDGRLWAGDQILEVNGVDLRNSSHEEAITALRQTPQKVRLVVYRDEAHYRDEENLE
Inadl_5, Q8NI35, sequence (Q8NI35 673-780): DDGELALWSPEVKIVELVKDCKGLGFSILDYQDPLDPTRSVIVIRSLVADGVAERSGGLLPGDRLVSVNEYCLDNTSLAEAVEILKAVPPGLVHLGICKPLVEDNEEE
TJP1_2, Q07157, sequence (Q07157 181-274): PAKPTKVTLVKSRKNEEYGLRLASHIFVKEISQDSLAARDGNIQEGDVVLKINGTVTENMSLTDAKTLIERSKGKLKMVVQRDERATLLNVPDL

Turning to IDESKKEWLI [CNTNAP2, Q9UHC6], the negative logarithm of the Kd (pKd) result is “below the threshold” with Inadl_5, Q8NI35; “below the threshold” in the assay with NHERF3_3, Q5T2W1; “below the threshold” with GRIP1_7, Q9Y3R0; 3.72 in the assay with LIN7A, O14910; “below the threshold” with MPDZ_5, O75970; “below the threshold” with MAGI2_6, Q86UL8. For the same molecule, the negative logarithm of the Kd (pKd) with MAGI3_2, Q5TCQ9 is 4.06; in the assay with HTRA3, P83110 it was 4.15; with DLG3_2, Q92796 it was 3.91; with TJP1_2, Q07157, 3.5; with SNTB1, Q13884 it was “below the threshold”; with SCRIB_2, Q14160, “below the threshold”. The pKd result with FRMPD2_1, Q68DX3 is “below the threshold”; with CASK, O14936, “below the threshold”; with PDZD2_2, O15018, 4.54; in the assay with FRMPD2_3, Q68DX3 it was 3.51; with MAGI1_1, Q96QZ7, “below the threshold”; in the assay with GORASP2, Q9H8Y8, 3.94. Moreover, the pKd result with DLG4_1, P78352 is “below the threshold”; with RHPN1, Q8TCX5, “below the threshold”; with GRID2IP_1, A4D2P6, “below the threshold”; with Inadl_8, Q8NI35, “below the threshold”; in the assay with FRMPD2_2, Q68DX3, “below the threshold”; in the assay with NHERF3_4, Q5T2W1 it was “below the threshold”. Besides, the pKd in the assay with GORASP1, Q9BQQ3 was 4.25; with LAP2, Q96RT1, “below the threshold”; with DLG3_1, Q92796, “below the threshold”.
Regarding KSRVAFFEEL [NF2, P35240;P35240-1], the pKd entry is “below the threshold” with Inadl_5, Q8NI35; “below the threshold” in the assay with NHERF3_3, Q5T2W1; “below the threshold” in the assay with MPDZ_5, O75970; 4.05 in the assay with MAGI2_6, Q86UL8; “below the threshold” in the assay with MAGI3_2, Q5TCQ9; “below the threshold” with HTRA3, P83110. Also, the negative-log Kd (pKd) entry is on record as “below the threshold” in the assay with DLG3_2, Q92796; “below the threshold” in the assay with SCRIB_2, Q14160; “below the threshold” with FRMPD2_1, Q68DX3; “below the threshold” with CASK, O14936; “below the threshold” with FRMPD2_3, Q68DX3; “below the threshold” with MAGI1_1, Q96QZ7. Also, the pKd result with RHPN1, Q8TCX5 was “below the threshold”; with GRID2IP_1, A4D2P6, “below the threshold”; in the assay with Inadl_8, Q8NI35 it was “below the threshold”; with FRMPD2_2, Q68DX3, “below the threshold”; in the assay with GORASP1, Q9BQQ3, 4.06; in the assay with LAP2, Q96RT1 it was “below the threshold”.
SRSVVESDEL [MYPN, Q86TC9]: the pKd result with Inadl_5, Q8NI35 is “below the threshold”; with NHERF3_3, Q5T2W1, “below the threshold”; with GRIP1_7, Q9Y3R0 it was “below the threshold”; in the assay with LIN7A, O14910, “below the threshold”; in the assay with MPDZ_5, O75970 it was “below the threshold”; with MAGI2_6, Q86UL8, “below the threshold”. The negative-log Kd (pKd) result is “below the threshold” in the assay with MAGI3_2, Q5TCQ9; “below the threshold” in the assay with HTRA3, P83110; “below the threshold” with DLG3_2, Q92796; 3.51 with TJP1_2, Q07157; “below the threshold” with SNTB1, Q13884; “below the threshold” with SCRIB_2, Q14160. Besides, the pKd result with FRMPD2_1, Q68DX3 was “below the threshold”; with CASK, O14936, “below the threshold”; in the assay with PDZD2_2, O15018 it was “below the threshold”; with FRMPD2_3, Q68DX3 it was “below the threshold”; in the assay with MAGI1_1, Q96QZ7, 3.53; with GORASP2, Q9H8Y8, “below the threshold”. Also, the negative-log Kd (pKd) entry was “below the threshold” in the assay with DLG4_1, P78352; “below the threshold” with RHPN1, Q8TCX5; “below the threshold” with GRID2IP_1, A4D2P6; “below the threshold” with Inadl_8, Q8NI35; “below the threshold” with FRMPD2_2, Q68DX3; “below the threshold” with NHERF3_4, Q5T2W1. Besides, the pKd entry with GORASP1, Q9BQQ3 is recorded as “below the threshold”; with LAP2, Q96RT1, “below the threshold”; with DLG3_1, Q92796, “below the threshold”.
Turning to KRPEMTSSSV [MUC3A, MUC3B, Q02505;Q9H195], the negative logarithm of the Kd (pKd) result with Inadl_5, Q8NI35 is “below the threshold”; with NHERF3_3, Q5T2W1, “below the threshold”; with GRIP1_7, Q9Y3R0, “below the threshold”; with LIN7A, O14910 it was “below the threshold”; with MPDZ_5, O75970, “below the threshold”; with MAGI2_6, Q86UL8 it was 3.66. Besides, the negative logarithm of the Kd (pKd) with MAGI3_2, Q5TCQ9 is 3.86; in the assay with HTRA3, P83110, “below the threshold”; in the assay with DLG3_2, Q92796 it was 4.26; in the assay with FRMPD2_3, Q68DX3, “below the threshold”; in the assay with MAGI1_1, Q96QZ7 it was “below the threshold”; in the assay with GORASP2, Q9H8Y8 it was “below the threshold”. Further, the pKd entry was “below the threshold” with DLG4_1, P78352; 3.84 in the assay with RHPN1, Q8TCX5; “below the threshold” with GRID2IP_1, A4D2P6; “below the threshold” with GORASP1, Q9BQQ3.
